Consider eight molecules from EP4653461A1 (DE NOVO BIOTHERAPEUTICS CO., LTD., dated 2025).

Residue numbers refer to the chain shown, from its start.

In experiment [1] the target is T1, 6506GJ130-1A: Human NKP46 Recombinant Protein (His) (human, UniProt O76036 22-258, limits assumed).
T1 construct: also called human NKp46 protein; not shown: His tag
The experiment in a line: competition ELISA, NKp46-His coated; competitor 2-5 at 20 ug/ml.

The target in experiment [2] is T1, 6506GJ130-1A: Human NKP46 Recombinant …. Put plainly: competition ELISA, NKp46-His coated; competitor 1-10 at 20 ug/ml.
For experiment [3] the target is unchanged. The experiment in a line: competition ELISA, NKp46-His coated; competitor 1-4-2 at 20 ug/ml.
Experiment [4] shares this target. Put plainly: competition ELISA, NKp46-His coated; competitor 2-7 at 20 ug/ml.
The target is the same in experiment [5]. The experiment in a line: SPR, Biacore 8K, antibody captured on Protein A chip, NKp46 as analyte.
The target is the same in experiment [6]. The experiment in a line: competition ELISA, NKp46-His coated; competitor 2-2 at 20 ug/ml.
Experiment [7] shares this target. The experiment in a line: competition ELISA, NKp46-His coated; competitor 2-1 at 20 ug/ml.
Experiment [8] has the same target. The experiment in a line: competition ELISA, NKp46-His coated; competitor 2-10 at 20 ug/ml.
Experiment [9] has the same target. Put plainly: competition ELISA, NKp46-His coated; competitor 2-3 at 20 ug/ml.
For experiment [10] the target is unchanged. Put plainly: competition ELISA, NKp46-His coated; no competitor (Control).
Experiment [11] has the same target. The experiment in a line: competition ELISA, NKp46-His coated; competitor 1-2 at 20 ug/ml.
Experiment [12] has the same target. The experiment in a line: competition ELISA, NKp46-His coated; competitor 1-8 at 20 ug/ml.

T1 sequence (O76036 22-258 limits assumed): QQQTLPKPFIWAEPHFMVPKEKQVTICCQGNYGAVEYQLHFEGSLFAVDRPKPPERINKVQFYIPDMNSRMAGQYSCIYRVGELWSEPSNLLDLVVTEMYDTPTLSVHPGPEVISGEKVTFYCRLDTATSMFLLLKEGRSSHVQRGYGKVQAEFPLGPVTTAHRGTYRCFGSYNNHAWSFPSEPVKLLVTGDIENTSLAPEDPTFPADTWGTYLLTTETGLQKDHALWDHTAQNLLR

B1: 32C9F4 (2-2) (antibody, IgG4, V domains shown)
VH: QVQLQQPGAELVKPGASVKLSCKASGYTFTSYWMHWVKQRPGQGLEWIGMIHPNSGVTKYNEKFKSKATLTVDKSSSTAYMQLSSLTSEDSAVYFCAGDGRFAYWGQGTLVTVSA
VL: DIQMTQSPSSLSASLGERVSLTCRASQDIGSSLNWLQQEPDGTIKRLIYATSSLDSGVPKRFSGSRSGSDYSLTISSLESEDFVDYYCLQYASSPWTFGGGTKLEIK
notes: Hybridoma clone; made as mouse/human chimeric IgG4
As for B1, the ELISA signal in experiment [1] was 1.2; in [2] it was 0.159; in experiment [3], 0.931; in experiment [4] it was 0.098; in experiment [6], 0.093; in experiment [7], 0.241. Besides, the ELISA signal in [8] came to 0.096; in experiment [9], 0.092; in experiment [10], 1.34; in experiment [11], 1.05; in experiment [12], 1.37. Also, the Kd in experiment [5] is 1.03 nM. For the same molecule, the koff in [5] is 0.000542 s⁻¹. Also, in experiment [5], the on-rate constant (kon) turned out to be 527000 M⁻¹ s⁻¹.

B2: 8A10C11 (2-7) (antibody, IgG4, V domains shown)
VH: QVQLQQPGAELVKPGASVKLSCKASGFTFTNYWMHWVKQRPGQGLEWIGMIHPNSGSTNYNEKFKSKATLTVDKSSSTAYMQLSSLTSEDSAVYYCAGGGRLDYWGQGTTLTVSS
VL: B1 VL with W96F, G100S
notes: as for B1
B2: the ELISA signal came out at 1.24 in [1]; 0.133 in [2]; 0.637 in experiment [3]; 0.093 in experiment [4]; 0.088 in [6]; 0.204 in experiment [7]. Besides, the ELISA signal in [8] is 0.106; in [9], 0.146; in experiment [10], 1.41; in experiment [11], 1.1; in [12], 1.4. Moreover, the Kd in experiment [5] amounted to 2.78 nM. Besides, the off-rate (koff) in [5] was found to be 0.00142 s⁻¹. Further, the on-rate constant (kon) in experiment [5] turned out to be 511000 M⁻¹ s⁻¹.

B3: 45A10D5 (2-1) (antibody, IgG4, V domains shown)
VH: B1 VH with V57S, K59N, F95Y, A97V, G98Y
VL: B1 VL with W96F, G100S
notes: as for B1
On to B3, for which the ELISA signal was determined as 1.32 in experiment [1]; 0.087 in experiment [2]; 0.658 in experiment [3]; 0.077 in experiment [4]; 0.087 in experiment [6]; 0.097 in experiment [7]. For the same molecule, the ELISA signal in experiment [8] was 0.1; in experiment [9] it was 0.093; in [10] it was 1.63; in [11], 1.12; in [12] it was 1.6. In addition, in [5], the Kd turned out to be 30 nM. The koff in experiment [5] was found to be 0.0113 s⁻¹. Besides, the on-rate (kon) in [5] is 376000 M⁻¹ s⁻¹.

B4: 8D5A6C1 (2-10) (antibody, IgG4, V domains shown)
VH: B1 VH with K19R, S25F
VL: B1 VL with S31N
notes: as for B1
In the case of B4, the ELISA signal in experiment [1] worked out at 1.13; in experiment [2] it was 0.176; in [3] it was 0.724; in experiment [4], 0.123; in experiment [6], 0.154; in [7], 0.245. Also, the ELISA signal in [8] was determined as 0.083; in experiment [9], 0.091; in experiment [10], 1.27; in experiment [11] it was 0.998; in [12], 1.3. Moreover, in experiment [5], the Kd was determined as 1.29 nM. In addition, in experiment [5], the koff worked out at 0.000615 s⁻¹. For the same molecule, the kon in experiment [5] was determined as 476000 M⁻¹ s⁻¹.

B5: u6506gj130-1-4-vk2 (1-4-2) (antibody, IgG4, V domains shown)
VH: DVQLQQSVAELVRPGASVNLSCTASGFNIKNTYMHWVKQRPEQGLEWIGMIDPANGNTKYAPKFQGKATITADTSSNTAYLHLSSLTSEDTAIYYCARWAYDGYYESYFDYWGQGTTLTVSS
VL: SIVMTQSPKFLLVSAGDRVTITCKASQSVSNDVAWYQQKPGQSPKLLIYYASNRYTGVPDRFTGSGYGTDFTFTISTVQAEDLAVYFCHQDYSSPFTFGSGTKLEIK
notes: Beacon screening clone; made as mouse/human chimeric IgG4
With B5, the ELISA signal in [1] came out at 0.852; in experiment [2], 0.662; in experiment [3] it was 0.082; in [4] it was 0.686; in experiment [6], 0.829; in [7], 0.764. The ELISA signal in experiment [8] worked out at 0.691; in experiment [9], 0.785; in experiment [10] it was 1.44; in experiment [11], 0.1; in experiment [12], 1.24. Further, in experiment [5], the Kd worked out at 18.3 nM. Further, the koff in experiment [5] came out at 0.0038 s⁻¹. Besides, the kon in experiment [5] is 207000 M⁻¹ s⁻¹.

B6: u6506gj130-1-10 (1-10) (antibody, IgG4, V domains shown)
VH: QVQLQQPGAELVKPGASVKLSCKASGYIFTSYWMHWVKQRPGQGLEWIGMIHPNSGSTNYNEKFKSKATLTVDKSSSTAYMQLSSLTSEDSAVYYCAREGNWARGYFEYWGQGTTLTVSS
VL: DIKMTQSPSSMYASLGERVTITCKASQDINSYLSWFQQKPGKSPKTLIYRANRLVDGVPSRFSGSGSGQDYSLTISSLEYEDVGMYYCLQYDEFPYTFGGGTKLEIK
notes: as for B5
As to B6, the ELISA signal is 1.44 in [1]; 0.095 in [2]; 0.895 in experiment [3]; 0.08 in experiment [4]; 0.086 in [6]; 0.121 in [7]. Moreover, the ELISA signal in experiment [8] came out at 0.097; in experiment [9] it was 0.092; in experiment [10], 1.6; in [11], 1.04; in experiment [12], 1.71. Besides, the equilibrium dissociation constant (Kd) in [5] turned out to be 9.34 nM. For the same molecule, the dissociation rate constant (koff) in experiment [5] turned out to be 0.00229 s⁻¹. The on-rate (kon) in [5] was determined as 246000 M⁻¹ s⁻¹.

B7: 21C9E9 (2-5) (antibody, IgG4, V domains shown)
VH: DVQLQESGPGLVKTSQSLSLTCSVTGYSITSDDYWNWIRQFPGNKLEWVGYISYDGSNNYNPSLKNRISITRDTSKNQFFLKLNSVTTEDTATYYCARLGYPAMDSWGQGTSVTVSS
VL: B6 VL with Y80F, V83L, M85I, Y96W
notes: as for B1
In the case of B7, the ELISA signal in [1] was 0.201; in [2] it was 1.4; in experiment [3], 0.612; in experiment [4], 1.33; in [6], 1.28; in experiment [7], 1.28. The ELISA signal in experiment [8] worked out at 1.3; in [9], 1.27; in experiment [10], 1.31; in [11], 1.3; in [12], 1.29. Also, in experiment [5], the Kd is 4.96 nM. Also, the koff in experiment [5] was 0.000116 s⁻¹. For the same molecule, the kon in experiment [5] came to 23400 M⁻¹ s⁻¹.

B8: u6506gj130-1-8 (1-8) (antibody, IgG4, V domains shown)
VH: QVQLQQPGAELVRPGTSVKLSCKASGYTFTSYWMHWVKQRPGQGLEWIGVIDPSDSYTNYNQKFKGKATLTVDTSSSTAYMQLSSLTSEDSAVYYCARSSSAYYSNYEAYWGQGTLVTVSA
VL: QIVLTQSPAIMSASPGEKVTISCSASSSVGYMFWYQQKPGSSPKPWIYRTSNLASGVPARFSGSGSGTSYSLTISSMEAEDAATYYCQQYHSYPPMWTFGGGTKLEIK
notes: as for B5
As for B8, the ELISA signal in [1] amounted to 0.197; in experiment [2], 1.45; in experiment [3], 1.18; in experiment [4], 1.39; in [6], 1.43; in experiment [7], 1.4. Moreover, the ELISA signal in experiment [8] is 1.34; in experiment [9] it was 1.35; in experiment [10] it was 1.45; in [11], 1.61; in experiment [12], 0.111. Moreover, the Kd in experiment [5] was found to be 11 nM. Besides, the koff in experiment [5] amounted to 0.00866 s⁻¹. Besides, the kon in experiment [5] amounted to 790000 M⁻¹ s⁻¹.
